Source: US7291458B2, “Leptin-mediated gene-induction” (Vlaams Interuniversitair Instituut Voor Biotechnologie VZW, priority 1998, dated 2007)

Assays:
[1] = system: differentiated PC12-LR8 cells; assay: RDA and Northern blot of leptin-responsive genes in differentiated PC12-LR8 cells; type: cell-based, rat; conditions: leptin 24 hours, continued presence of b-NGF and forskolin
Method: Adherent PC12-LR8 cells were treated with b-NGF and forskolin for 5 days to induce neuronal differentiation. Differentiated cells were treated with leptin (nF/L) for 24 hours, or were left untreated (nF), in the continued presence of b-NGF and forskolin. Non-differentiated cells were treated for 24 hours with leptin and forskolin (F/L) or with forskolin alone (F). Hybridization was performed with probes as indicated. Mouse b-actin probe was used as a control. Exposure to BioMax film at −80° C. was 3 days for Mx2, 3 hours for peripherin, 4 days for PAP III and 16 hours for b-actin.
The search for leptin-regulated genes was also extended to differentiated PC12 cells (FIG. 5). Adherent PC12-LR8 cells were treated with b-NGF and forskolin for 5 days, which led to a growth arrest, the formation of branched neuritic processes and the accumulation of small vesicles. Again, a RDA experiment was performed using mRNAs from differentiated cells treated with leptin for 24 hours, or from untreated cells, both in the continued presence of b-NGF and forskolin.
For neuronal differentiation, resuspended PC12 were seeded on rat tail collagen (Collaborative Biomedical Products) coated plates at 2-3 10^6 cells/25 cm^2 flask in RMPI 1640 medium with glutamax-I containing 10% heat-inactivated horse serum, 5% iFCS and gentamycin. […]

PC12 cells = assay: RDA of PC12 cells transiently transfected with pMET7-mLRlo; type: cell-based, rat; conditions: leptin-forskolin co-stimulated versus forskolin alone
Method: To search for genes regulated by leptin in the PC12 cell line, a RDA (representational difference analysis) experiment was performed using a modification of the original method (Hubank and Schatz, 1994). Using this procedure, it is possible to clone amplicons corresponding to transcripts from leptin-forskolin co-stimulated PC12 cells, transiently transfected with pMET7-mLRlo. After three rounds of subtraction/amplification, selectively amplified bands were purified and subcloned in the pCDNA3 or pCR-Blunt vector (Invitrogen). […] Based on this observation, a simple one-tube RT-PCR based procedure was set up to select for PC12 subclones, stably expressing the leptin receptor long isoform (FIG. 2 portion A). One stable clone, PC12-LR8, was chosen for further experiments (FIG. 2 portion B). Individual inserts from the cloned amplicon collection were radiolabeled and leptin-dependent gene regulation was verified and studied in more detail by Northern blot analysis on the PC12-LR8 cell line.
RDA was used to clone differentially expressed cDNAs from PC12 cells, transiently transfected with the leptin receptor long isoform, or from neuronal differentiated PC12-LR8 cells, which stably express the leptin receptor long isoform. In both cases, cloning was performed using mRNA from cells either stimulated with leptin+forskolin or with forskolin alone. […]

B1: leptin: mouse leptin (R&D Systems), ob gene product, used on PC12 cells at 100 ng/ml (protein)
chain: VPIQKVQDDTKTLIKTIVTRINDISHTQSVSAKQRVTGLDFIPGLHPILSLSKMDQTLAVYQQVLTSLPSQNVLQIANDLENLRDLLHLLAFSKSCSLPQTSGLQKPESLDGVLEASLYSTEVVALSRLQGSLQDILQQLDVSPEC
- regulation of Mx2, Peripherin and PAP III transcripts [1]: up-regulated
- induction of rat Pancreatitis Associated Protein I (rPAP I) transcript (PC12 cells): strongly induced
